Measurements as given in paper PMC6379078 (Cell, 2018).
Ends that are not written are not given here. * marks the point of attachment. Biotin = O=C1N[C@H]2[C@H](CS[C@H]2CCCCC(=O)*)N1

Target: T1, wheat germ cell extract in vitro translated HA-GLI1 (human, UniProt P08151 1-1106)
T1 sequence (looked up): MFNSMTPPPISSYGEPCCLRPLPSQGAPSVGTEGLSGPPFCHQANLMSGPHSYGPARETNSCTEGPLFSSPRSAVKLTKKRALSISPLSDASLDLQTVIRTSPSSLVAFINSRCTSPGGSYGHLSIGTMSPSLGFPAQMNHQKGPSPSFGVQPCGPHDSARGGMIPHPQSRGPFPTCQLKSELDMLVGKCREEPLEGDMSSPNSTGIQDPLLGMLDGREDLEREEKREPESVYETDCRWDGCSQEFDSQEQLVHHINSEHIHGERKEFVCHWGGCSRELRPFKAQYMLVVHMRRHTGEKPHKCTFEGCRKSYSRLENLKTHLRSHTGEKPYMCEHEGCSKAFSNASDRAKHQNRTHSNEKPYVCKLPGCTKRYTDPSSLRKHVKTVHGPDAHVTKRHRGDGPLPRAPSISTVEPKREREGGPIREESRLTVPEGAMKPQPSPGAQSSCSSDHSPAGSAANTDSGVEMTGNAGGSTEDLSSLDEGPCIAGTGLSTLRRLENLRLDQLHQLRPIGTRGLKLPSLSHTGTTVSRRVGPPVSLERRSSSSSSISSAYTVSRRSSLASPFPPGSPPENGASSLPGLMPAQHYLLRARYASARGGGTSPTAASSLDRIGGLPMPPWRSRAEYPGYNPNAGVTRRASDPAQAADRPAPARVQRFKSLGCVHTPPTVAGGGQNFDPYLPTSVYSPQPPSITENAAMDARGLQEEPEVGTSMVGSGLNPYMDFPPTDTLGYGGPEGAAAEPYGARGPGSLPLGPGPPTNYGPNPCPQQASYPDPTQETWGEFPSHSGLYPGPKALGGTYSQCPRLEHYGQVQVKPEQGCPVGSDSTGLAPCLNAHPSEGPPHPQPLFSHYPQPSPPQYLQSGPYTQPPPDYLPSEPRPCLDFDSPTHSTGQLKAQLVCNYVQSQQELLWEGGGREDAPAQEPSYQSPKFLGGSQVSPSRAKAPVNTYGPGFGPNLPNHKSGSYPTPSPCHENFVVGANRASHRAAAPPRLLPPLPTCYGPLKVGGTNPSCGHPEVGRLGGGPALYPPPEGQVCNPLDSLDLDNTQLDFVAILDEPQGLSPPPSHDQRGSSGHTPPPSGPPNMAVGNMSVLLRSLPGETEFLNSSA
Assay: co-IP

Kd: 8 µM
Binder: Biotin-LEDPSVLTKDKLKSELVANNVTLPAGEQRKDVYVQLYLQHLTAR (peptide, UniProt P42166 5-48, looked up) [biotin-LEM-like domain peptide (residues 5–48)]
